Here are results for 2 substances from patent publication US20140378382A1.

Experiment [1] deals with PTHR-1 (species and cells not stated for the assay) (Homo sapiens (Human)) (UniProt Q03431). Description: cell-based or functional assay.
The target in experiment [2] is parathyroid hormone receptor-2 (PTHR-2). Nature of the experiment: cell-based or functional assay.

Sequence of PTHR-1 (species and cells not stated for the assay) (Homo sapiens (Human)) (Q03431 27-593 limits assumed, form in doubt): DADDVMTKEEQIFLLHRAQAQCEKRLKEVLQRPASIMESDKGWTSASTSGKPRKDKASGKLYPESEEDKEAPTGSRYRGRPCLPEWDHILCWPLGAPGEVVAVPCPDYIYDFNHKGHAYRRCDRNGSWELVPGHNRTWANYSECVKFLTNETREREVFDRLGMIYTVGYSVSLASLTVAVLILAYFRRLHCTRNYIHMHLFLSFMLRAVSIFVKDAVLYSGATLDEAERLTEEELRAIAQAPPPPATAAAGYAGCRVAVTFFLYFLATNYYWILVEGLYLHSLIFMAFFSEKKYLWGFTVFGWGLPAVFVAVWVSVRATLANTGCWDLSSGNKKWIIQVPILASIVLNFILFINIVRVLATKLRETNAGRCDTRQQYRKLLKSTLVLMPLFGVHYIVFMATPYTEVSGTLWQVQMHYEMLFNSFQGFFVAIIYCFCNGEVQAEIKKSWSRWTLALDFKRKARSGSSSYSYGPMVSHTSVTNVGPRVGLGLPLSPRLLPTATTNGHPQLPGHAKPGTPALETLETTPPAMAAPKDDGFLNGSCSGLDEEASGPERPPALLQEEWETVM

For “hTIP(1-39) (from UniProt Q96A98 62-100) (peptide)”, the cAMP response PTH1R/PTH2R in experiment [1] amounted to 0.01. The cAMP response PTH2R/PTH1R in experiment [2] came to 165.

“hPTHrP(1-36) (from UniProt P12272 37-72) (peptide)” yielded a cAMP response PTH1R/PTH2R in experiment [1] of 27. This substance also registered a cAMP response PTH2R/PTH1R in experiment [2] of 0.04.
